Measurements taken from publication PMC6958441, “Role of the Metal Center in the Modulation of the Aggregation Process of Amyloid Model Systems by Square Planar Complexes Bearing 2-(2′-pyridyl)benzimidazole Ligands” (Pharmaceuticals, 2019).

Molecular target: the molecule itself
Test: ESI-MS; peptide alone (control) at 100 µM in 15 mM ammonium acetate pH 6.8, 25 °C, direct injection, Q-ToF; the dimer is also seen in the samples with the metal complexes 1-3

B1: NPM1_(264–277), fragment corresponding to the 2nd helix (residues 264–277) of the C-terminal domain of nucleophosmin 1 (peptide)
peptide: Ac-VEAKFINYVKNCFR-NH2
notes: The dimer seen by ESI-MS is held by a disulfide bridge through the single cysteine of the peptide; A species of 1874 Da (monomer adduct on the Cys) and oxidised forms were also in the sample; source: synthetic peptide, treated with HFIP, purified through RP-HPLC
With B1 the “stoichiometry N” value was 2.
